Patent publication US20260139017A1, “COMPOSITIONS AND METHODS USING REELIN IN ALZHEIMER'S DISEASE” (The General Hospital Corporation, priority 2022, published 2026)

Target: Neuropilin 1 (NRP1), R&D 3870-N1-025 (UniProt O14786)
Assay: BLI (Octet), biotinylated NRP1 on SA biosensor, 1:1 global fit

Sequence of Neuropilin 1 (NRP1), R&D 3870-N1-025 (O14786 other isoform, or with tags, fused parts or gaps limits assumed): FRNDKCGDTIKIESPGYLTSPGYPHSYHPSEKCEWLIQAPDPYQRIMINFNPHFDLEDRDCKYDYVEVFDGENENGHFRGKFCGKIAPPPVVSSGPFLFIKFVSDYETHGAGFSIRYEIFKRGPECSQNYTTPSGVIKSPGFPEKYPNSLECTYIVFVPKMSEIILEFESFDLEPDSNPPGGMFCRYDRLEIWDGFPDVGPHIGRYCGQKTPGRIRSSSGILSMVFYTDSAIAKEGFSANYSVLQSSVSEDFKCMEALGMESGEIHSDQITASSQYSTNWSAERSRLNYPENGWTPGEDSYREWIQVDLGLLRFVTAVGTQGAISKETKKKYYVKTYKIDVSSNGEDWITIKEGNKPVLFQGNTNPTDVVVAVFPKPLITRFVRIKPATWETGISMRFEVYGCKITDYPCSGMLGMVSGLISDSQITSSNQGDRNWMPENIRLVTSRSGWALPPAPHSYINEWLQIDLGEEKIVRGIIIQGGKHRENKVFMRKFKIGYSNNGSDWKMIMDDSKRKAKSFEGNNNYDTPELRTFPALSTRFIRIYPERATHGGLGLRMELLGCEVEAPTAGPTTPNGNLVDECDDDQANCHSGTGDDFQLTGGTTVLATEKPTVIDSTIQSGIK

Kd: 5.53 nM
koff: 0.0015 s⁻¹
kon: 272000 M⁻¹ s⁻¹
Substance: Vascular endothelial growth factor (VEGF) (ligand)
